Data taken from US20170355757A1 (Regeneron, published 2017).

B1: H4H12183P2 (antibody, human IgG4, V domains shown)
VH: QVQLQESGPALVKPSQTLSLTCTVSGGSIIRGSTYWSWVRQFPGKGLEWIGYSYYSGTAYYNPSLESRATISVDTSKNQFSLNLKSVTAADTAVYYCTREIGVAGLFDIWGQGTLVTVSS
VL: not shown
notes: Human IgG4 Fc with S108P hinge mutation (H4H)
B2: H4H12166P (antibody, V domains shown)
VH: QVQLQESGPGLVKPSETLSLTCTVSGDSVSSSYWTWIRQPPGKGLEWIGYIYYSGSSNYNPSLKSRATISVDTSKNQFSLKLSSVTAADTAVYYCAREGNVDTTMIFDYWGQGTLVTVSS
VL: AIQMTQSPSSLSASVGDRVTITCRASQGIRNDLGWYQQKPGKAPKLLIYAASSLQSGVPSRFAGRGSGTDFTLTISSLQPEDFATYYCLQDFNYPWTFGQGTKVEIK
B3: H4H12161P (antibody, human IgG4, V domains shown)
VH: EVQLVESGGDLVQPGGSLRLSCAASGFTFSDHYMDWVRQAPGKGLDWIGRIRNKANAYNTEYAASVRGRFTISRDDSQNLLYLQMNSLKTDDTAVYYCVRVWNYAYFAMDVWGQGTTVTVSS
VL: DIQMTQSPSSLSASVGDRVTITCRSSQNIGIFLNWYQQKPGEAPNLLISAASSLHSGVPSRFSGSGSGTDFTLTIGSLQPEDFATYYCQQTYNTIFTFGPGTKVDIK
B4: H4H12161P (antibody, human IgG4, V domains shown)
VH: B3 VH
VL: B3 VL
notes: as for B1
B5: H4H12169P (antibody, human IgG4, V domains shown)
VH: EVQLVESGGGLAQPGGSLRLSCAASGFTFRSYAMSWVRQAPGKGPEWVSGIGGNGVTTYYADSVKGRFTISRDNSKNTLFLQMNSLRAEDTAVYYCVQGGLGGYFTGYWGQGTLVTVSS
VL: DIQMTQSPSSLSASVGDRVTITCRASQSISTYLNWYQQNPGKAPKLLIFDASSLQSGVPSRFSGSGSGTDFTLTIRGLQPEDFATYYCQQSYSAPLTFGGGTKVEIK
notes: as for B1
B6: H4H12176P2 (antibody, human IgG4, V domains shown)
VH: EVQLVESGGGLVQPGGSLRLSCAASGFHSNRYWMDWVRQAPGKGLEWVANIKQDGSEENYVDSVKGRFTISRDNAKNSLYLQMNSLRAEDTAVYYCARDRSTSWVPYWFFDLWGRGTLVTVSS
VL: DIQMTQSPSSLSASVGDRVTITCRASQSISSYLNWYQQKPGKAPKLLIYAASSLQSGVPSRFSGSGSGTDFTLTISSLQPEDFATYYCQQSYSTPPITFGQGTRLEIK
notes: as for B1

Assays:
human C5 R885H-mmh [1] = target: T1, human C5 R885H-mmh (human, UniProt P01031 19-1676); assay: SPR, mAb captured via anti-hFc, 37C
T1 construct: also called human C5 variant R885H
Description: (§1) Equilibrium dissociation constants (KD values) for C5 binding to purified anti-C5 antibodies were determined using a real-time surface plasmon resonance biosensor assay on a Biacore T200 instrument. The Biacore sensor surface was derivatized by amine coupling with a monoclonal mouse anti-human Fc antibody (GE Healthcare, # BR-1008-39) to capture anti-C5 antibodies expressed with human Fc constant regions. Biacore binding studies were conducted in HBST running buffer (0.01M HEPES pH 7.4, 0.15M NaCl, 3 mM EDTA, 0.05% v/v Surfactant P20).
(§2) Human C5 was obtained from a commercial source (EMD). Other C5 reagents were expressed with a C-terminal myc-myc-hexahistidine tag (subsequently referred to as C5-mmh). […] Association of all the C5 reagents to each of the captured monoclonal antibodies was monitored for 3 minutes and their dissociation in HBST running buffer was monitored for 8 minutes. All the binding kinetics experiments were performed at either 25° C. or 37° C. Kinetic association (kₐ) and dissociation (kd) rate constants were determined by fitting the real-time sensorgrams to a 1:1 binding model using Scrubber 2.0c curve fitting software. Binding dissociation equilibrium constants (KD) and dissociative half-lives (t %) were calculated from the kinetic rate constants as: KD (M)=kd/kₐ and t_{1/2} (min)=In2/(60×kd)

human C5 R885C-mmh [2] = target: T2, human C5 R885C-mmh (human, UniProt P01031 19-1676); assay: SPR, mAb captured via anti-hFc, 37C
T2 construct: also called human C5 variant R885C
Description: as §1, §2

monkey C5-mmh [3] = target: T3, monkey C5-mmh (monkey, UniProt P01031 19-1676 (human entry), limits assumed); assay: SPR, mAb captured via anti-hFc, 37C
T3 construct: Recombinant monkey C5 with a C-terminal myc-myc-hexahistidine tag
T3 chain: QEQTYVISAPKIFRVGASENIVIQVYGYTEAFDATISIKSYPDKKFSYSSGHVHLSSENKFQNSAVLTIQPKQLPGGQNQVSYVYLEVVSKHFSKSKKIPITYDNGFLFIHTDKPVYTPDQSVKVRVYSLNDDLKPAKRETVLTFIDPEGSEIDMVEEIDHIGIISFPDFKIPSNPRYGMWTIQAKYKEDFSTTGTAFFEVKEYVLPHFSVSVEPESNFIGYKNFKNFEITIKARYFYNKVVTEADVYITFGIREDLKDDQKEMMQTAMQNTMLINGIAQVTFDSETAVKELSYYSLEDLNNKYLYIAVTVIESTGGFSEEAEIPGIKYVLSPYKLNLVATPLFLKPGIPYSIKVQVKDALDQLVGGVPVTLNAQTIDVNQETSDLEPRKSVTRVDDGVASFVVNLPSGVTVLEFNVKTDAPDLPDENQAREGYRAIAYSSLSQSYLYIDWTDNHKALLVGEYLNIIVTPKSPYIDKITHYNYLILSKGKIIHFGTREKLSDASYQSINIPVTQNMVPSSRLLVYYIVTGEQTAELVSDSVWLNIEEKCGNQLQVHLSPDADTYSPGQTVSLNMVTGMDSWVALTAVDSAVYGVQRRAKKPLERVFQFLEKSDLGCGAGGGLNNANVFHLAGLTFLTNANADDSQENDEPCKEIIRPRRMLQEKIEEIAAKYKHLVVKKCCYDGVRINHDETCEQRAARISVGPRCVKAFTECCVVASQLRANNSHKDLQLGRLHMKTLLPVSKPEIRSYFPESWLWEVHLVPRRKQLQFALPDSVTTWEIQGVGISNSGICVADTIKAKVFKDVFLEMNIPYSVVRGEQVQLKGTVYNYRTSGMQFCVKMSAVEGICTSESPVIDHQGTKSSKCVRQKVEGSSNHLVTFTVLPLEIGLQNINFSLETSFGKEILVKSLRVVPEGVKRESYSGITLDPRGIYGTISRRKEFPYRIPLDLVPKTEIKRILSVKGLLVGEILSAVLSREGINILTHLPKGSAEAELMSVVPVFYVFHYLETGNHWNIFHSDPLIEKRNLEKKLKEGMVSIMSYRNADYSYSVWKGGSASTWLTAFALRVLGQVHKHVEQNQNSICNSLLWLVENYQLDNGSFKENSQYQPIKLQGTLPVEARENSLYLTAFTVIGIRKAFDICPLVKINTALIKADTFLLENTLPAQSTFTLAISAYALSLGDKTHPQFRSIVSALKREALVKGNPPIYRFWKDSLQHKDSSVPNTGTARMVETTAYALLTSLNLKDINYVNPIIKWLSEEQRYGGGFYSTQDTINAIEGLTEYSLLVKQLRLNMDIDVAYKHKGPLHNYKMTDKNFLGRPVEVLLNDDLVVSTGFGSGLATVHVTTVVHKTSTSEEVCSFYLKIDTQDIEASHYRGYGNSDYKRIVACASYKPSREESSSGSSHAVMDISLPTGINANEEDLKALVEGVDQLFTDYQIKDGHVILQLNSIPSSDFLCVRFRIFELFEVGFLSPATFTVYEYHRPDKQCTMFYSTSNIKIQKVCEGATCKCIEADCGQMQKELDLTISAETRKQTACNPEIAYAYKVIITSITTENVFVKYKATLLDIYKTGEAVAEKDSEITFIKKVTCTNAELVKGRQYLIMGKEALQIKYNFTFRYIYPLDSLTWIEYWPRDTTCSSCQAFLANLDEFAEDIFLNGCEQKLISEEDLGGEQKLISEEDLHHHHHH
Description: as §1, §2

human C5 R885H-mmh [4] = target: T1, human C5 R885H-mmh; assay: SPR, mAb captured via anti-hFc, 25C
Description: as §1, §2

human C5 R885C-mmh [5] = target: T2, human C5 R885C-mmh; assay: SPR, mAb captured via anti-hFc, 25C
Description: as §1, §2

African green monkey C5 = African green monkey C5 (African green monkey); assay: cell-based or functional assay
Cynomolgus monkey C5 = Cynomolgus monkey C5 (cynomolgus monkey, UniProt A0A2K5U1T1 19-1676); assay: cell-based or functional assay
monkey C5-mmh [6] = target: T4, monkey C5-mmh (monkey, UniProt P01031 19-1676 (human entry), limits assumed); assay: SPR, mAb captured by anti-hFc, 25C
T4 construct: Expressed with a C-terminal myc-myc-hexahistidine tag
T4 chain: T3 chain
Outline: (§3)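 Antibodies captured on anti-human Fc surface in HBST (HEPES pH 7.4, 3 mM EDTA); C5 reagents (commercial human C5 or myc-myc-His-tagged variants) associated 3 min, dissociated 8 min, at 25 °C or 37 °C. Sensorgrams fitted 1:1; KD = kd/ka, t½ = ln2/(60×kd).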

Human C5 [7] = target: T5, Human C5 (human, UniProt P01031 19-1676); assay: SPR, mAb captured by anti-hFc, 25C
T5 construct: The natural protein has a beta and an alpha chain; also called complement factor 5; complement component 5
Outline: as §3

Human C5 [8] = target: T5, Human C5; assay: SPR, mAb captured by anti-hFc, 37C
Outline: as §3

Binder	100 nM Human C5 R885H-mmh Bound (RU) (human C5 R885H-mmh [1])	Kd (human C5 R885H-mmh [1]) [nM]	koff (human C5 R885H-mmh [1]) [s⁻¹]	kon (human C5 R885H-mmh [1]) [M⁻¹ s⁻¹]	t1/2 (human C5 R885H-mmh [1]) [min]	100 nM Human C5 R885C-mmh Bound (RU) (human C5 R885C-mmh [2])	Kd (human C5 R885C-mmh [2]) [nM]	koff (human C5 R885C-mmh [2]) [s⁻¹]	kon (human C5 R885C-mmh [2]) [M⁻¹ s⁻¹]	t1/2 (human C5 R885C-mmh [2]) [min]	100 nM monkey C5-mmh Bound (RU) (monkey C5-mmh [3])	Kd (monkey C5-mmh [3]) [nM]	koff (monkey C5-mmh [3]) [s⁻¹]	kon (monkey C5-mmh [3]) [M⁻¹ s⁻¹]	t1/2 (monkey C5-mmh [3]) [min]	100 nM Human C5 R885H-mmh Bound (RU) (human C5 R885H-mmh [4])	Kd (human C5 R885H-mmh [4]) [nM]	koff (human C5 R885H-mmh [4]) [s⁻¹]	kon (human C5 R885H-mmh [4]) [M⁻¹ s⁻¹]	t1/2 (human C5 R885H-mmh [4]) [min]	other results
B1	36	7.43	0.000712	95800	16	25	19.5	0.000997	51200	12	13	118	0.00637	54000	2	99	1.16	4.37e-05	37700	264	100 nM Human C5 R885C-mmh Bound (RU) (human C5 R885C-mmh [5]): 80 RU; Kd (human C5 R885C-mmh [5]): 0.737 nM; koff (human C5 R885C-mmh [5]): 2.2e-05 s⁻¹; kon (human C5 R885C-mmh [5]): 29900 M⁻¹ s⁻¹; t1/2 (human C5 R885C-mmh [5]): 525 min
B2																					AGM AP % Max Inhibition, hemolysis assay, 5% serum (African green monkey C5): 44.2%; AGM CP % Max Inhibition, hemolysis assay, 5% serum (African green monkey C5): 81%; AGM Serum AP IC50, hemolysis assay, 5% serum (African green monkey C5): 233 nM; Cyno AP % Max Inhibition, hemolysis assay, 5% serum (Cynomolgus monkey C5): 98.6%; Cyno CP % Max Inhibition, hemolysis assay, 5% serum (Cynomolgus monkey C5): 94.2%; Cyno Serum AP IC50, hemolysis assay, 5% serum (Cynomolgus monkey C5): 8.85 nM; Cyno Serum CP IC50, hemolysis assay, 5% serum (Cynomolgus monkey C5): 20.1 nM
B3																					100 nM monkey C5-mmh Bound (RU) (monkey C5-mmh [6]): 45 RU; Kd (monkey C5-mmh [6]): 0.392 nM; koff (monkey C5-mmh [6]): 2.48e-05 s⁻¹; kon (monkey C5-mmh [6]): 63300 M⁻¹ s⁻¹; t1/2 (monkey C5-mmh [6]): 465 min; 100 nM Human C5 Bound (RU) (Human C5 [7]): 64 RU; Kd (Human C5 [7]): 0.17 nM; koff (Human C5 [7]): 4.37e-05 s⁻¹; kon (Human C5 [7]): 258000 M⁻¹ s⁻¹; t½ (Human C5 [7]): 264 min; 100 nM Human C5 Bound (RU) (Human C5 [8]): 66 RU; Kd (Human C5 [8]): 0.99 nM; koff (Human C5 [8]): 0.000115 s⁻¹; kon (Human C5 [8]): 116000 M⁻¹ s⁻¹; t½ (Human C5 [8]): 101 min
B4	54	7.84	0.000925	118000	12	49	8.17	0.000901	110000	13	53	5.56	0.000745	134000	16	199	0.996	8.32e-05	83600	139	100 nM Human C5 R885C-mmh Bound (RU) (human C5 R885C-mmh [5]): 147 RU; Kd (human C5 R885C-mmh [5]): 0.672 nM; koff (human C5 R885C-mmh [5]): 8.71e-05 s⁻¹; kon (human C5 R885C-mmh [5]): 130000 M⁻¹ s⁻¹; t1/2 (human C5 R885C-mmh [5]): 133 min
B5	79	1.72	0.000739	429000	16	75	2.24	0.000737	329000	16	64	14.3	0.00361	251000	3	173	0.147	7.09e-05	484000	163	100 nM Human C5 R885C-mmh Bound (RU) (human C5 R885C-mmh [5]): 168 RU; Kd (human C5 R885C-mmh [5]): 0.251 nM; koff (human C5 R885C-mmh [5]): 6.99e-05 s⁻¹; kon (human C5 R885C-mmh [5]): 278000 M⁻¹ s⁻¹; t1/2 (human C5 R885C-mmh [5]): 165 min
B6	69	3.73	0.000958	257000	12	55	7.32	0.00103	141000	11	47	9.6	0.00129	135000	9	65	1.22	0.000217	178000	53	100 nM Human C5 R885C-mmh Bound (RU) (human C5 R885C-mmh [5]): 63 RU; Kd (human C5 R885C-mmh [5]): 2.03 nM; koff (human C5 R885C-mmh [5]): 0.000218 s⁻¹; kon (human C5 R885C-mmh [5]): 107000 M⁻¹ s⁻¹; t1/2 (human C5 R885C-mmh [5]): 53 min
